From IntAct's records for PubMed 16977320

B1: Ephrin type-A receptor 2 (Mus musculus), Q03145 (parent)
chain: MELRAVGFCLALLWGCALAAAAAQGKEVVLLDFAAMKGELGWLTHPYGKGWDLMQNIMDDMPIYMYSVCNVVSGDQDNWLRTNWVYREEAERIFIELKFTVRDCNSFPGGASSCKETFNLYYAESDVDYGTNFQKRQFTKIDTIAPDEITVSSDFEARNVKLNVEERMVGPLTRKGFYLAFQDIGACVALLSVRVYYKKCPEMLQSLARFPETIAVAVSDTQPLATVAGTCVDHAVVPYGGEGPLMHCTVDGEWLVPIGQCLCQEGYEKVEDACRACSPGFFKSEASESPCLECPEHTLPSTEGATSCQCEEGYFRAPEDPLSMSCTRPPSAPNYLTAIGMGAKVELRWTAPKDTGGRQDIVYSVTCEQCWPESGECGPCEASVRYSEPPHALTRTSVTVSDLEPHMNYTFAVEARNGVSGLVTSRSFRTASVSINQTEPPKVRLEDRSTTSLSVTWSIPVSQQSRVWKYEVTYRKKGDANSYNVRRTEGFSVTLDDLAPDTTYLVQVQALTQEGQGAGSKVHEFQTLSTEGSANMAVIGGVAVGVVLLLVLAGVGLFIHRRRRNLRARQSSEDVRFSKSEQLKPLKTYVDPHTYEDPNQAVLKFTTEIHPSCVARQKVIGAGEFGEVYKGTLKASSGKKEIPVAIKTLKAGYTEKQRVDFLSEASIMGQFSHHNIIRLEGVVSKYKPMMIITEYMENGALDKFLREKDGEFSVLQLVGMLRGIASGMKYLANMNYVHRDLAARNILVNSNLVCKVSDFGLSRVLEDDPEATYTTSGGKIPIRWTAPEAISYRKFTSASDVWSYGIVMWEVMTYGERPYWELSNHEVMKAINDGFRLPTPMDCPSAIYQLMMQCWQQERSRRPKFADIVSILDKLIRAPDSLKTLADFDPRVSIRLPSTSGSEGVPFRTVSEWLESIKMQQYTEHFMVAGYTAIEKVVQMSNEDIKRIGVRLPGHQKRIAYSLLGLKDQVNTVGIPI

Variants of: B1
Conditions: with epha4_mouse Epha4, Q03137
epha4_mouse Epha4, Q03137, sequence (Q03137 whole entry): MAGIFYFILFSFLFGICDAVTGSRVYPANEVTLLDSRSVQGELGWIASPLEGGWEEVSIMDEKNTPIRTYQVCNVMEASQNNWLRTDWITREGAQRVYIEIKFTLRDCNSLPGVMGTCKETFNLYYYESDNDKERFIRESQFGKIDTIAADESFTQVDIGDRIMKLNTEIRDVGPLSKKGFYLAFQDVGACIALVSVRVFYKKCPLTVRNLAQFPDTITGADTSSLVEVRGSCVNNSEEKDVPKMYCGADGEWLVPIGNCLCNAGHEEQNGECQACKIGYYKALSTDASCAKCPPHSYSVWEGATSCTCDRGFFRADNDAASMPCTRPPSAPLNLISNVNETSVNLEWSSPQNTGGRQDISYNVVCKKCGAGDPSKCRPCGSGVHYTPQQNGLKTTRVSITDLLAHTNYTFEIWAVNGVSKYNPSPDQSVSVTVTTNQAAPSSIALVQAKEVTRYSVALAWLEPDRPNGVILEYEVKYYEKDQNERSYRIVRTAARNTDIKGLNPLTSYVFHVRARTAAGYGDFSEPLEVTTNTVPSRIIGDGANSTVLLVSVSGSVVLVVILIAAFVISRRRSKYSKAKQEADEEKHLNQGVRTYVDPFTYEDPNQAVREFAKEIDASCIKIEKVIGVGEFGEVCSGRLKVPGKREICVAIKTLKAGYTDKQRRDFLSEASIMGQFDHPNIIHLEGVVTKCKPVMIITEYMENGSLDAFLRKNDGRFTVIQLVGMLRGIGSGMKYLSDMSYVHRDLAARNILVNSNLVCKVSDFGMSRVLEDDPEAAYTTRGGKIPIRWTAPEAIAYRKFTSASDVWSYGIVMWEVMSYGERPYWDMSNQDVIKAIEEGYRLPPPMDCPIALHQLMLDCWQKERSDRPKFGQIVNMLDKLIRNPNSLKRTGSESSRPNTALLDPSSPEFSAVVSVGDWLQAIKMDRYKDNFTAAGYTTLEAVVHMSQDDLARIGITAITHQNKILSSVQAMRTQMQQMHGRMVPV

effect of a mutation on the interaction | Variant
disrupting interaction | Y595F

Variants of: B1
Conditions: with epha4_mouse Epha4, Q03137
Remark: another data set of the same source

effect of a mutation on the interaction | Variant
disrupting interaction | Y589F
